Test results published in patent US20070218504A1, “HUMAN LEPTIN-DERIVED POLYPEPTIDES AND USES THEREOF” (UNIVERSITY OF PITTSBURGH, priority 2006, published 2007).
Entries after “also recorded” stand apart in the source; their conditions may differ. Values belong to the molecule of their own block, whether it stands above or below them.

Experiments:
[1] = target: T1, human CRP (Homo sapiens, UniProt P02741); assay: Polypeptide blocking of human CRP inhibition of leptin-stimulated STAT3 tyrosine phosphorylation in HEK-293 cells over-expressing OB-Rb; assay type: cell-based; details: for effect of polypeptide by itself on STAT phosphorylation: control, polypeptide alone; for restoration of leptin-stimulated STAT3 activation in presence of human CRP, Example 8 comparison: human CRP 8 μg/ml, human leptin 2 nM, 1 hour pre-incubation, up to 0.8 μM (800 nM); for blocking of the inhibitory effect of human CRP on leptin signaling (STAT3 tyrosine phosphorylation): polypeptide pre-incubated with human CRP 30 minutes, then human leptin 45 minutes
T1 construct: purchased CHEMICON or EMD Biosciences
T1 sequence (P02741 19-224): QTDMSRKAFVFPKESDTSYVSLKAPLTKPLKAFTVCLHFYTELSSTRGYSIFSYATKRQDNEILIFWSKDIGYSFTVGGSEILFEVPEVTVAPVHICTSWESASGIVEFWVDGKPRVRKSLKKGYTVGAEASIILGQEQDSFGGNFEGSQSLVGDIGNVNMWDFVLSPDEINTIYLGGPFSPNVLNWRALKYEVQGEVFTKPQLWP
Procedure: In the in vitro experiment, each of these polypeptide was pre-incubated with human CRP for 30 minutes before being mixed with human leptin for an additional 45 minutes. The resultant mixture was then added to the HEK-293 cells over-exprssing the long form leptin receptors, OB-Rb. After a 30-minute incubation, the cells were harvested in a protein extraction buffer (18). The signaling of leptin in the cells, measured by its ability to stimulate tyrosine phosphorylation on STAT3 in a western blot assay, was evaluated (see FIGS. 8, 9, 10 for polypeptides B, C1 and E, respectively).
Pursuant to an in vitro protocol similar to that described in Example 6, a hexamer disclosed in U.S. Pat. No. 6,777,388, NH2—S—C—H-L-P—W—COOH (SEQ ID NO:18), was pre-incubated with human CRP (8 μg/ml) and human leptin (2 nM) for 1 hour. The resultant mixture then was added to HEK-293 cells that over-expressed the long form leptin receptor, OB—Rb. After a 30-minute incubation, the cells were harvested in a protein extraction buffer. To evaluate signaling of human leptin in the cells, tyrosine phosphorylation on STAT3 was measured in a western blot assay.

[2] = test system: ob/ob mice; assay: Co-infusion of polypeptide E with human CRP and leptin through mini-osmotic pumps into ob/ob mice; assay type: in vivo, mouse; details: for restoration of satiety and weight-reducing effects of human leptin (food intake, body weight): Pep-E 24 or 48 μg/day/mouse with human CRP 48 μg/day/mouse and leptin 12 μg/day/mouse
Procedure: FIG. 11. […] Infusion dosages for human CRP and leptin were 48 μg/day/mouse and 12 μg/day/mouse, respectively. The infusion rate for Pep-E (P) was 24 μg/day/mouse (medium dosage, “m”) and 48 μg/day/mouse (high dosage, “h”). Food-intake (A and C) and body weight (B and D) were monitored daily throughout the infusion. The arrows in A-D indicate the day of surgery. At the end of infusion, blood samples were collected for the measurement of blood-glucose, human CRP, and human leptin. The serum concentrations of human CRP and human leptin were 0.85±0.1 μg/ml and 18 ng±2 ng/ml, respectively. […] Also shown is glucose concentration from mice infused with human CRP and leptin but not with Pep-E.
In the in vivo experiment, polypeptide E was co-infused through mini-osmotic pumps with human CRP and leptin into the ob/ob mice. Food intake in the period of 24 hours and body weight were followed during the infusion period (FIGS. 11A-11D).

[3] = test system: tyrosine phosphorylation of STAT3; assay: Leptin-induced tyrosine phosphorylation of STAT3 in HEK293 cells over-expressing OB-Rb in the presence of CRP (Western blot); assay type: cell-based, human; details: separate control, concentrations much higher than CRP
Procedure: To determine if the interaction between CRP and leptin dampens the cellular actions of leptin, the ability of leptin to stimulate tyrosine phosphorylation of STAT3 and PI3-kinase activity was assessed in the presence of CRP in vitro. HEK293 cells over-expressing OB-Rb were serum starved for 2 hours before addition of leptin and CRP (CHEMICON or EMD Biosciences). Leptin, in the presence or absence of CRP, was pre-incubated in μ-MEM (with additional 1 mM Ca^2+) for 30 minutes at 37° C. before being applied to the cells. After a 30-minute incubation with leptin, the cells were harvested in lysis buffer (18). The resultant protein extract was subjected to a Western blot analysis using an anti-phospho-STAT3 specific antibody (Cell Signaling, Beverly, Mass.). For studies involving primary hypothalamic neurons, the hypothalamus from rats was surgically isolated immediately after euthanasia, and placed in the DMEM for incubation with leptin in the presence or absence of CRP.

[4] = target: long-form human leptin receptor, OB-Rb (human) (UniProt P48357); assay: 125I-human leptin binding to HEK293 cells stably transfected with human OB-Rb
Chain of long-form human leptin receptor, OB-Rb (human) (P48357 22-1165): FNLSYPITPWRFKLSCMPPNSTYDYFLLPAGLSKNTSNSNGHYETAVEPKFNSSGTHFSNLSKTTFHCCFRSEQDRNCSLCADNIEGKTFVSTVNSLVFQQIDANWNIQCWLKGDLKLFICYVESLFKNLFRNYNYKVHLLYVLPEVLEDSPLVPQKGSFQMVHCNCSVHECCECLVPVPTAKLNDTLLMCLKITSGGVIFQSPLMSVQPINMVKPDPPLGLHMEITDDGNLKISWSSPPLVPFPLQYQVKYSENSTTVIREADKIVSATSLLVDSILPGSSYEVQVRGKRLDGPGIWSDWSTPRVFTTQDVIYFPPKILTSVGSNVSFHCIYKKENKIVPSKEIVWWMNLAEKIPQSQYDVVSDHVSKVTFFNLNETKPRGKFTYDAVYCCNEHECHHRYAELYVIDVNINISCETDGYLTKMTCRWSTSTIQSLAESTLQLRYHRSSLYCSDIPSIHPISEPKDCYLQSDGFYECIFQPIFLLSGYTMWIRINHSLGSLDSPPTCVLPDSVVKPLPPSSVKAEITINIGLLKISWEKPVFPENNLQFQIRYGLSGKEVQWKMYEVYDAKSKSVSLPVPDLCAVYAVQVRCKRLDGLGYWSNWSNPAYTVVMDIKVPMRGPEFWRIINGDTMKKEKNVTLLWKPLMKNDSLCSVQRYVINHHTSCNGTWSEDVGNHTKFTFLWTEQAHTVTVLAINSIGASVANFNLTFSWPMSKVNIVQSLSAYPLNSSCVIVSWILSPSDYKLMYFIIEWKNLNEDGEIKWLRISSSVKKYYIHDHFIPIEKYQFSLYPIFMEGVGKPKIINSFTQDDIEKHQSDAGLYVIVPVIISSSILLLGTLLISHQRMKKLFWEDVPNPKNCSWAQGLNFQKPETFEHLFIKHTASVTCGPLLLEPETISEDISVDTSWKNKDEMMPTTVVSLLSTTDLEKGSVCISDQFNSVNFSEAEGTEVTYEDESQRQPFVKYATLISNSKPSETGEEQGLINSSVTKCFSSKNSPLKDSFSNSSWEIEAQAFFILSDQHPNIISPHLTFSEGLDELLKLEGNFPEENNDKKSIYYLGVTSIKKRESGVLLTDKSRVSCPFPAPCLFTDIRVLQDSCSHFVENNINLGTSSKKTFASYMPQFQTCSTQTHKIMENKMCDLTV

[5] = target: T2, human leptin (human, UniProt P41159 22-167, 125I-labelled (Iodogen method) in the receptor binding assay of Example 3); assay: human CRP pre-incubated with 125I-human leptin (~2 ng/ml); inhibition of leptin binding to OB-Rb on HEK293 cells
T2 construct: Recombinant human leptin from AF Parlow, NHPP; also called recombinant human leptin
Procedure: After 10-minute incubation at room temperature, the reaction was stopped with 100 μl 0.1% trifluoroacetic acid (TFA). The reaction mixture was immediately purified by reverse-phase HPLC. The separation employed a 5-minute isocratic step at 20% eluant B in A, followed by two consecutive 30 min linear gradients from 20 to 50%, then from 50 to 60% eluant B in A (where eluant A is water containing 0.1% TFA and eluant B is acetonitrile containing 0.1% TFA) at a flow rate of 1.5 ml/min. […] The incubation would last for 3 hour at 4° C. before the media was aspirated and the cells were dissolved in 0.1N NaOH for scintillation counting.

[6] = target: T3, rat C-reactive protein (rat, UniProt P48199 20-230); assay: rat serum on mouse leptin-Sepharose affinity column; eluted band identified by MALDI-TOF
T3 construct: mature; also called rat CRP; rat SLIP-1
T3 sequence (looked up): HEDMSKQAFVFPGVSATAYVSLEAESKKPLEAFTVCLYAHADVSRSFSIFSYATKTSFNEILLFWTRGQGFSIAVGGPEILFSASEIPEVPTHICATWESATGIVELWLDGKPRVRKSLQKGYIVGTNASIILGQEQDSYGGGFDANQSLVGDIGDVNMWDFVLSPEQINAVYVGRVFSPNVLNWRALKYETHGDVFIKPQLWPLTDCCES
Procedure: Retained material was eluted with an acidic glycine solution, and the eluate was immediately neutralized in a Tris-buffer (50 mM, pH=9.5).
The mass-spec assay was performed on Thermo Finnigan LTQ mass spectrometer by CTO-BIO Services (Rockville, Md.). Data analysis was carried out with the Turbo-Sequest software.

[7] = test system: ob/ob mice; assay: Intracerebralventricular (i.c.v.) injection of human CRP and leptin in ob/ob mice, food intake and body weight; assay type: in vivo, mouse
[8] = mouse leptin i.c.v. after human CRP

Molecule: KVQDDTKTLIKTIVTRINDISHTQS (listed as Homo sapiens) [polypeptide B, chemically synthesized human leptin-derived polypeptide, residues 26 to 50]
effect of polypeptide by itself on STAT phosphorylation [1]: did not induce any changes; also recorded: does not have any effect
blocking of the inhibitory effect of human CRP on leptin signaling (STAT3 tyrosine phosphorylation) [1]: able to block the inhibitory effect of human CRP and to restore leptin signaling

Molecule: human serum amyloid P component: control serum protein circulating at much higher concentrations than CRP [reference compound]
effect of control serum protein on leptin-induced STAT3 phosphorylation / leptin signaling [3]: did not influence leptin signaling

Molecule: H-WPLHCS-OH [D-form, reference compound]
restoration of leptin-stimulated STAT3 activation in presence of human CRP, Example 8 comparison [1]: failed to restore

Molecule: NH2—S—C—H-L-P—W—COOH (H-SCHLPW-OH) [hexamer, hexamer disclosed in U.S. Pat. No. 6,777,388, reference compound]
restoration of leptin-stimulated STAT3 activation in presence of human CRP, Example 8 comparison [1]: unable to block
restoration of leptin-stimulated STAT3 activation in presence of human CRP, Example 8 comparison ([1]; listed as L-form): failed to restore

B2: mouse leptin (ligand, UniProt P41160 22-167, looked up)
chain: VPIQKVQDDTKTLIKTIVTRINDISHTQSVSAKQRVTGLDFIPGLHPILSLSKMDQTLAVYQQVLTSLPSQNVLQIANDLENLRDLLHLLAFSKSCSLPQTSGLQKPESLDGVLEASLYSTEVVALSRLQGSLQDILQQLDVSPEC
modifications: 125I-labelled in the receptor binding assay of FIG. 4B
notes: also called murine-leptin; recombinant mouse leptin
binding result [6]: binds

B3: Mouse leptin: mouse recombinant leptin (protein)
chain: VPIQKVQDDTKTLIKTIVTRINDISHTQSVSAKQRVTGLDFIPGLHPILSLSKMDQTLAVYQQVLTSLPSQNVLQIANDLENLRDLLHLLAFSKSCSLPQTSGLQKPESLDGVLEASLYSTEVVALSRLQGSLQDILQQLDVSPEC
decrease of food intake, PBS pre-injection ([7]; mouse leptin i.c.v. after PBS): 32.9%
reduction of body weight, PBS pre-injection ([7]; mouse leptin i.c.v. after PBS): 1.80%
decrease of food intake, human CRP pre-injection [7, 8]: 32.4%
reduction of body weight, human CRP pre-injection [7, 8]: 1.76%

Now from value to molecule, other results behind:

effect of polypeptide by itself on STAT phosphorylation ([1]; listed as Peptide-E): did not induce any changes
restoration of leptin-stimulated STAT3 activation in presence of human CRP, Example 8 comparison [1]: able to restore
restoration of leptin-stimulated STAT3 activation in presence of human CRP, Example 8 comparison ([1]; listed as Peptide-E): blocked the inhibitory effect
Molecule: LAFSKSCHLPWASGLETLDSLGGVLEA (listed as Homo sapiens) [polypeptide E, chemically synthesized human leptin-derived polypeptide, residues 111 to 137]
effect of polypeptide by itself on STAT phosphorylation [1]: did not induce any changes; also recorded: does not have any effect
blocking of the inhibitory effect of human CRP on leptin signaling (STAT3 tyrosine phosphorylation) [1]: able to block the inhibitory effect of human CRP and to restore leptin signaling
restoration of satiety and weight-reducing effects of human leptin (food intake, body weight) [2]: able to restore both of these functions
restoration of satiety and weight-reducing effects of human leptin (food intake, body weight) ([2]; listed as Peptide-E): restored the physiological effects of human leptin
restoration of effect of human leptin on blood glucose ([2]; end of infusion, high dosage Pep-E): able to restore the beneficial effect

concentration at which the maximal effect can be reached ([1]; FIG. 9A): 50 nM
effect of higher concentration ([1]; FIG. 9B): does not further improve its effect
relative effectiveness in blocking the CRP activity on leptin ([1]; compared with the other polypeptides): more effective at a lower concentration
Molecule: VSSKQKVTGLDFIPGLHPILTLSKM (listed as Homo sapiens) [polypeptide C1, chemically synthesized human leptin-derived polypeptide, residues 51 to 75]
effect of polypeptide by itself on STAT phosphorylation [1]: did not induce any changes; also recorded: does not have any effect
blocking of the inhibitory effect of human CRP on leptin signaling (STAT3 tyrosine phosphorylation) [1]: able to block the inhibitory effect of human CRP and to restore leptin signaling

Kd [4]: 1 nM
Molecule: human leptin (from UniProt P41159 22-167) (ligand)

IC50 [5]: ~0.08 µg/mL
molecular ratio (CRP:leptin) at the IC50 [5]: 5.8
B1: human C-reactive protein (other, UniProt P02741 19-224, looked up)
chain: QTDMSRKAFVFPKESDTSYVSLKAPLTKPLKAFTVCLHFYTELSSTRGYSIFSYATKRQDNEILIFWSKDIGYSFTVGGSEILFEVPEVTVAPVHICTSWESASGIVEFWVDGKPRVRKSLKKGYTVGAEASIILGQEQDSFGGNFEGSQSLVGDIGNVNMWDFVLSPDEINTIYLGGPFSPNVLNWRALKYEVQGEVFTKPQLWP
notes: also called human CRP; CRP
